Values belong to the substance of their own block, whether it stands above or below them.
What was measured:
[1] = biological target: human nerve growth factor (NGF) (human) (UniProt P01138); experiment: BIACORE SPR
[2] = biological target: mouse NGF (mNGF) (mouse) (UniProt P01139); experiment: BIACORE SPR
[3] = biological target: rat NGF (rNGF) (rat) (UniProt P25427); experiment: BIACORE SPR
[4] = biological target: human nerve growth factor (NGF) (human) (UniProt P01138); experiment: BIACORE SPR; mAb captured, human NGF injected
[5] = biological target: human nerve growth factor (NGF) (human) (UniProt P01138); experiment: cell-based or functional assay
[6] = biological target: human neurotrophin-3 (NT-3) (human) (UniProt P20783); experiment: cell-based or functional assay
Sequence of human neurotrophin-3 (NT-3) (human) (P20783 139-257 limits assumed): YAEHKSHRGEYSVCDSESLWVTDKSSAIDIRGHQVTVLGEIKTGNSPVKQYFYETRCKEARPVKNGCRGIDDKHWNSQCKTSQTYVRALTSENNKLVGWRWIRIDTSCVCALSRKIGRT

[7] = biological target: human neurotrophin-3 (NT-3) (human) (UniProt P20783); experiment: BIACORE; 20 nM NT-3 + 500 nM agent, % NT-3 bound to TrkB-hFc chip
[8] = biological target: human nerve growth factor (NGF) (human) (UniProt P01138); experiment: BIACORE SPR; mAb captured, 20 nM NGF
[9] = biological target: human nerve growth factor (NGF) (human) (UniProt P01138); experiment: BIACORE blocking; % free NGF bound to TrkA-hFc chip
[10] = biological target: human neurotrophin-3 (NT-3) (human) (UniProt P20783); experiment: BIACORE SPR; NT-3 1.25 nM to 40 nM
[11] = biological target: human neurotrophin-3 (NT-3) (human) (UniProt P20783); experiment: BIACORE; 20 nM NT-3 + 500 nM agent, % NT-3 bound to TrkA-hFc chip
[12] = biological target: human neurotrophin-3 (NT-3) (human) (UniProt P20783); experiment: BIACORE; 20 nM NT-3 + 500 nM agent, % NT-3 bound to p75-hFc chip
[13] = biological target: human nerve growth factor (NGF) (human) (UniProt P01138); experiment: BIACORE SPR; complex dissociation half-life
[14] = biological target: human neurotrophin-3 (NT-3) (human) (UniProt P20783); experiment: BIACORE SPR; mAb captured, 20 nM NT-3
[15] = biological target: human nerve growth factor (NGF) (human) (UniProt P01138); experiment: BIACORE SPR; purified mAb
[16] = biological target: mouse NGF (mNGF) (mouse) (UniProt P01139); experiment: BIACORE SPR; purified mAb
[17] = biological target: rat NGF (rNGF) (rat) (UniProt P25427); experiment: BIACORE SPR; purified mAb
[18] = biological target: human nerve growth factor (NGF) (human) (UniProt P01138); experiment: BIACORE blocking; % free NGF bound to p75-hFc chip
[19] = biological target: human neurotrophin-3 (NT-3) (human) (UniProt P20783); experiment: BIACORE; 20 nM NT-3 + 500 nM agent, % NT-3 bound to TrkC-hFc chip
[20] = biological target: human neurotrophin-3 (NT-3) (human) (UniProt P20783); experiment: BIACORE; 20 nM NT-3 + 500 nM agent, % NT-3 bound to p75-hFc chip (reference)
[21] = biological target: human neurotrophin-3 (NT-3) (human) (UniProt P20783); experiment: BIACORE; 20 nM NT-3 + 500 nM agent, % NT-3 bound to TrkC-hFc chip (reference)
[22] = biological target: human nerve growth factor (NGF) (human) (UniProt P01138); experiment: BIACORE blocking; negative control, % free NGF bound to TrkA-hFc chip
[23] = biological target: human neurotrophin-3 (NT-3) (human) (UniProt P20783); experiment: BIACORE; 20 nM NT-3 + 500 nM agent, % NT-3 bound to TrkB-hFc chip (reference)
[24] = biological target: human nerve growth factor (NGF) (human) (UniProt P01138); experiment: BIACORE blocking; negative control, % free NGF bound to p75-hFc chip
[25] = biological target: human neurotrophin-3 (NT-3) (human) (UniProt P20783); experiment: BIACORE; 20 nM NT-3 + 500 nM agent, % NT-3 bound to TrkA-hFc chip (reference)

Sequence of human nerve growth factor (NGF) (human) (P01138 122-241 limits assumed): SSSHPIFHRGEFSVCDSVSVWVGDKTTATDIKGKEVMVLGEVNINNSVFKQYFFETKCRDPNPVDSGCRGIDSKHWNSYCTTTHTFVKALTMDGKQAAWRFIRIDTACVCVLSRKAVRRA
Sequence of rat NGF (rNGF) (rat) (P25427 122-241 limits assumed): as the sequence (P01138 122-241 limits assumed) above, with S3T, I6V, R9M, M37T, D60A, D65E, M92T, G94D, V117A, A120G counted along it
Sequence of mouse NGF (mNGF) (mouse) (P01139 122-241 limits assumed): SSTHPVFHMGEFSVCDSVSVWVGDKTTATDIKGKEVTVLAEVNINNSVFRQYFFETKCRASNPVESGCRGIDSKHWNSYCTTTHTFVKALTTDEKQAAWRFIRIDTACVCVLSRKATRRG

Kd [1]: 1.25 pM | Kd [2]: 1.4 pM | Kd [3]: 1.5 pM | Kd [4]: 1.3 pM | IC50 (pM), PC12 SRE-luciferase [5]: 4.9 pM | MG87 IC50 [5]: < 186 pM | PC12 IC50 [5]: 21 pM | IC50, HEK293-TrkC SRE-luciferase [6]: 150000 to 200000 pM | IC50, PC12 SRE-luciferase with 75 nM NT-3 [6]: 105000 pM | % binding [7]: 8% | Kd [8]: 1.3 pM | % Binding TrkA-hFc [9]: 10% | Kd [10]: 1100 pM | % binding [11]: 7% | % binding [12]: 19% | t1/2 [13]: 35 h | Kd [14]: 1100 pM | Kd [15]: 1.25 pM | t1/2 [15]: 35 h | Kd [16]: 1.4 pM | Kd [17]: 1.51 pM | % Binding p75-hFc [18]: 16% | % binding [19]: 8%
Substance: humanized anti-human NGF monoclonal antibody E3 ("RN624") (tanezumab; CAS Registry No. 880266-57-9)

% binding [20]: 100% | % binding [21]: 100% | % Binding TrkA-hFc [22]: 116% | % binding [23]: 100% | % Binding p75-hFc [24]: 116% | % binding [25]: 100%
Substance: IgG1 control (AVASTIN®; Genentech, CA) (antibody)
